Consider five substances from patent US20200368364A1, “CYSTEINE PEPTIDE-ENABLED ANTIBODIES” (City of Hope, priority 2016, published 2020).

The target in assay [1] is mutated I83 trastuzumab memAb (I83E). Put plainly: SPR at 37° C., meditope over immobilised I83E trastuzumab memAb.
Assay [2] addresses original trastuzumab memAb (meditope-enabled trastuzumab, I83 in the light chain). Description: SPR at 37° C., meditope over immobilised original trastuzumab memAb.
In assay [3] the target is HER2 on SKBR3 cells (UniProt P04626). Description: Flow cytometry on SKBR3 cells with 10 nM complex on ice and an AF488 secondary antibody. The other quadrants are printed as Q1 1.19, Q3 0 and Q4 0.18.
For assay [4], the target named is HER2-Fc (R&D Systems) (UniProt P04626). Put plainly: SPR (Biacore T200), HER2-Fc amine-coupled to a CM5 chip, Fab flowed over; ± is the SD of three runs. For orientation: In SPR one partner is held on a chip, and binding of the other changes the refractive index at the surface.
Assay [5] has as its target Her2 (antigen in the SPR of Example 1, FIG. 14) (UniProt P04626). Description: SPR.

The Kd is the free concentration of one partner at which half of the binding sites on the other are occupied at equilibrium, for simple one-to-one binding. Read a low Kd as tighter binding. On to original meditope, Ac-…-Am (peptide), for which the values for the Kd in assay [1] and in assay [2] were 38 nM and 1000 nM, respectively.
With “A175C meFab conjugated to the AlexaFluor647 thiopyridine-meditope”, the Q2 (share of events positive for both the AF647 meditope and the AF488 secondary antibody) in assay [3] came out at 98.6.
In assay [1], “5-diphenylalanine meditope (FIG. 3) (peptide)” displayed a Kd of 0.86 nM.
In general, koff refers to the rate constant with which the complex falls apart. A low value points to slow dissociation. In general, kon refers to the rate constant with which the complex forms. In assay [4], Trastuzumab I83E, A175C Fab came in with a Kd of 0.296 nM, a koff of 0.000378 s⁻¹ and a kon of 1.28e+06 M⁻¹ s⁻¹.
In assay [5], “Trastuzumab I83E Fab (meditope-enabled trastuzumab V2 Fab)” returned a Kd of 0.055 nM, a koff of 0.00021 s⁻¹ and a kon of 3.8e+06 M⁻¹ s⁻¹. In addition, in assay [4], the Kd is 0.863 nM, the koff was found to be 0.000674 s⁻¹ and the on-rate constant (kon) turned out to be 1.04e+06 M⁻¹ s⁻¹.
